Data taken from IntAct's records for PubMed 22536782.

B1: GRB2-associated-binding protein 1 (Homo sapiens), Q13480 (parent)
chain: MSGGEVVCSGWLRKSPPEKKLKRYAWKRRWFVLRSGRLTGDPDVLEYYKNDHAKKPIRIIDLNLCQQVDAGLTFNKKEFENSYIFDINTIDRIFYLVADSEEEMNKWVRCICDICGFNPTEEDPVKPPGSSLQAPADLPLAINTAPPSTQADSSSATLPPPYQLINVPPHLETLGIQEDPQDYLLLINCQSKKPEPTRTHADSAKSTSSETDCNDNVPSHKNPASSQSKHGMNGFFQQQMIYDSPPSRAPSASVDSSLYNLPRSYSHDVLPKVSPSSTEADGELYVFNTPSGTSSVETQMRHVSISYDIPPTPGNTYQIPRTFPEGTLGQTSKLDTIPDIPPPRPPKPHPAHDRSPVETCSIPRTASDTDSSYCIPTAGMSPSRSNTISTVDLNKLRKDASSQDCYDIPRAFPSDRSSSLEGFHNHFKVKNVLTVGSVSSEELDENYVPMNPNSPPRQHSSSFTEPIQEANYVPMTPGTFDFSSFGMQVPPPAHMGFRSSPKTPPRRPVPVADCEPPPVDRNLKPDRKVKPAPLEIKPLPEWEELQAPVRSPITRSFARDSSRFPMSPRPDSVHSTTSSSDSHDSEENYVPMNPNLSSEDPNLFGSNSLDGGSSPMIKPKGDKQVEYLDLDLDSGKSTPPRKQKSSGSGSSVADERVDYVVVDQQKTLALKSTREAWTDGRQSTESETPAKSVK

Variants of: B1
Details: with grb2_human GRB2, P62993
Chain of grb2_human GRB2, P62993 (P62993 whole entry, looked up): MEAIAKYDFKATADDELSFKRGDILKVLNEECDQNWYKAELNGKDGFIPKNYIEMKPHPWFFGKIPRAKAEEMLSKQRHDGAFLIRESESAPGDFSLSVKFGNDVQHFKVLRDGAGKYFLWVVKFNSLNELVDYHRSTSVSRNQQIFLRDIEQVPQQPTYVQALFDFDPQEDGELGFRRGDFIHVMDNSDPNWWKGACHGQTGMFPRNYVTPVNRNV

Variant | effect of a mutation on the interaction
R521A | decreasing interaction
N522A | decreasing interaction
L523A | decreasing interaction
K524A | decreasing interaction

Variants of: B1
Details: with grb2_human GRB2, P62993
Remark: another data set of the same source

Variant | effect of a mutation on the interaction
R344A | increasing interaction
P345A | increasing interaction
P346A | increasing interaction
K347A | increasing interaction
